# Assay results reported in paper PMC2922993.
# T1: BRAF-HDAC Complex 80 (BHC80)-PHD finger, Q96BD5
# T1 chain: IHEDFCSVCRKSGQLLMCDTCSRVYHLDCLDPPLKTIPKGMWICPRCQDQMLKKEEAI
# B1: unmodified H3 peptide (peptide)
# chain: ARTKQTARKSTG
# modifications: not checked
# Molecular target: T1, BRAF-HDAC Complex 80 (BHC80)-PHD …
# Experiment: ITC
binder,measurement,value
B1,Kd,19.6 µM
